# Numbering of substitutions follows the chain as printed. Names may count otherwise. “And” between values parts separate entries of the source, which are not always exact repeats. Identical values can stand only once.
# B1: WT: wild-type glycosyltransferase BS-YjiC from Bacillus subtilis 168, amino acid sequence SEQ ID NO: 1 (protein)
# chain: MKKYHISMINIPAYGHVNPTLALVEKLCEKGHRVTYATTEEFAPAVQQAGGEALIYHTSLNIDPKQIREMMEKNDAPLSLLKESLSILPQLEELYKDDQPDLIIYDFVALAGKLFAEKLNVPVIKLCSSYAQNESFQLGNEDMLKKIREAEAEFKAYLEQEKLPAVSFEQLAVPEALNIVFMPKSFQIQHETFDDRFCFVGPSLGERKEKESLLIDKDDRPLMLISLGTAFNAWPEFYKMCIKAFRDSSWQVIMSVGKTIDPESLEDIPANFTIRQSVPQLEVLEKADLFISHGGMNSTMEAMNAGVPLVVIPQMYEQELTANRVDELGLGVYLPKEEVTVSSLQEAVQAVSSDQELLSRVKNMQKDVKEAGGAERAAAEIEAFMKKSAVPQ
# B2: K125I/N178I: BS-YjiC (SEQ ID NO: 1) double mutant: lysine into isoleucine (K125I) and asparagine 178 into isoleucine (protein)
# chain: B1 chain with K125I, N178I
# B3: K125I: BS-YjiC (SEQ ID NO: 1) mutant with lysine mutated into isoleucine (K125I) (protein)
# chain: B1 chain with K125I
# B4: K125I/P313W: BS-YjiC (SEQ ID NO: 1) double mutant: lysine into isoleucine (K125I) and proline 313 into tryptophan (protein)
# chain: B1 chain with K125I, P313W
# B5: P313W: BS-YjiC (SEQ ID NO: 1) mutant with proline at the 313th position mutated into tryptophan (protein)
# chain: B1 chain with P313W
# B6: N178I: BS-YjiC (SEQ ID NO: 1) mutant with asparagine at the 178th position mutated into isoleucine (protein)
# chain: B1 chain with N178I
# Assay: Thermal stability: residual enzyme activity after incubation at 45° C.
# Type: biochemical
# Details: pure enzyme incubated in water bath at 45° C. for 90 min; enzyme without high-temperature treatment as blank control
# Method: (§1) The detection methods involved in the following embodiments are as follows. • 1. Determination method of enzyme activity of glycosyltransferase BS-YjiC: 50 microliters (μL) of pure enzyme with a concentration of 1.5 milligrams per milliliter (mg/mL) is added to 950 μL of a reaction system containing 50 millimoles per liter (mM) Tris hydrochloride (Tris-HCl) (pH 8.0) buffer of 1 mM protopanaxadiol (PPD), 5 mM uridine diphosphate glucose (UDPG) and 8 mM magnesium chloride (MgCl2); reacted in a water bath at 35° C. for 30 minutes (min), then added the same volume of methanol to terminate the enzymatic reaction, so as to obtain a reacted product. The reacted product is centrifuged, then the supernatant is taken and filtered with a 0.22 micrometers (μm) filter to obtain a reaction solution, and the residual amount of PPD in the reaction solution is detected by high-performance liquid chromatography (HPLC). • 2. Definition of enzyme activity: the amount of enzyme required to convert 1 micromole (μmol) of ginsenoside PPD per minute at 35° C. and pH 8.0 is defined as one unit of enzyme activity U.
# After the prepared pure enzymes are incubated in a water bath at 45° C. for 90 min, 1 mL is taken, and the residual enzyme activity of the remaining enzymes is determined according to the enzyme activity determination method of the glycosyltransferase BS-YjiC, and the percentage of residual enzyme activity is obtained by taking the enzyme activity of the pure enzyme solution without high-temperature treatment as a blank control.
# The pure enzyme solutions containing wild-type glycosyltransferase BS-YjiC, K125I, N178I, P313W, K125I/N178I and K125I/P313W prepared in the step 2 of the embodiment 6 are taken, respectively, then put in a constant temperature water bath at 45° C., and sampled every 30 min. The residual enzyme activity of glycosyltransferase BS-YjiC is measured according to the enzyme activity determination method, and its thermal stability is compared.
row,Molecule,Residual enzyme activity (%)
1,B1,84.6%
2,B2,98.3% and 98.25%
3,B3,91.05%
4,B4,95.1% and 95.43%
5,B5,89.48%
6,B6,87.42%

# Assay: Melting temperature Tm of the enzyme
# Type: physicochemical
# Details: not given
Molecule,melting temperature Tm,increase of melting temperature Tm over natural glycosyltransferase BS-YjiC
B1,47.30 °C,–
B2,54.51 °C,7.21 °C
B4,53.07 °C,5.77 °C

# Assay: Initial enzyme activity of pure enzyme solutions
# Type: biochemical
# Details: 35° C., pH 8.0, 1 mM PPD, 5 mM UDPG
# Method: as §1
# The pure enzyme solutions containing the wild-type glycosyltransferase BS-YjiC, K125I, N178I, P313W, K125I/N178I, and K125I/P313W prepared above are detected respectively, and the results are shown in Table 2.
row,Molecule,Initial enzyme activity (%)
1,B1,100%
2,B2,106.47%
3,B3,103.15%
4,B4,105.13%
5,B5,96.53%
6,B6,98.76%

# Assay: Kinetic parameters with PPD as substrate (HPLC)
# Type: biochemical
# Details: 50-1000 μM PPD, 10 mM UDPG, 8 mM MgCl2, pH 8.0, 35° C., 30 min
# Method: 0.22 μg of pure enzyme is added into 50 mM […] (pH 8.0) buffer containing 10 mM UDPG and 8 mM MgCl2, added 50, 100, 200, 300, 400, 500, 600, 800 and 1000 μM PPD respectively, reacted at 35° C. in water bath for 30 min, and then then an equal volume of methanol is added to terminate the enzymatic reaction. The reacted products are centrifuged, then the supernatants are taken and filtered by a 0.22 μm filter to obtain reaction solutions, and the remaining amount of PPD in the reaction solutions is detected by HPLC.
Molecule,Kcat,Km,Vmax
B1,0.96 ± 0.06 s⁻¹,132 ± 32.1 µM,8.32 ± 0.36 U g^−1
B2,1.01 ± 0.05 s⁻¹,117 ± 22.5 µM,8.82 ± 0.45 U g^−1
B3,0.99 ± 0.05 s⁻¹,128 ± 22.4 µM,8.60 ± 0.41 U g^−1
B4,0.98 ± 0.05 s⁻¹,121 ± 23.1 µM,8.56 ± 0.44 U g^−1
B5,1.11 ± 0.08 s⁻¹,136 ± 32 µM,8.94 ± 0.60 U g^−1
B6,1.01 ± 0.07 s⁻¹,132 ± 33.8 µM,8.75 ± 0.62 U g^−1

# — patent US12134789B2, “Construction method and applications of glycosyltransferase BS-YjiC mutant” (Northwest university, priority 2023, dated 2024)
